Target: mXFP-TpoR (thrombopoietin receptor N-terminally fused to nonfluorescent mEGFP Tyr66Phe) (UniProt P40238)
Assay: live-cell micropatterning with FRAP

JAK2 FS L224E (domain or fragment)
fold reduction of binding stability against JAK2 FS wt: 20 fold

Source: PMC8117407
